We go through five molecules from article PMC7442826 (2020).

Sequences and labels used below:
B1: Cy3 labeled EHBP1 CH domain (domain or fragment)
chain: GRKPNASQSLLVWCKEVTKNYRGVKITNFTTSWRNGLSFCAILHHFRPDLIDYKSLNPQDIKENNKKAYDGFASIGISRLLEPSDMVLLAIPDKLTVMTYLYQIRAHFSGQ
modifications: Cy3 on the N-terminus
B2: EHBP1 CH (calponin homology) domain (domain or fragment)
chain: B1 chain
B3: Rab10_(1-175) (human Rab10 G-domain) (domain or fragment)
chain: MAKKTYDLLFKLLLIGDSGVGKTCVLFRFSDDAFNTTFISTIGIDFKIKTVELQGKKIKLQIWDTAGQERFHTITTSYYRGAMGIMLVYDITNGKSFENISKWLRNIDEHANEDVERMLLGNKCDMDDKRVVPKGKGEQIAREHGIRFFETSAKANINIEKAFLTLAEDILRKTP
B4: EHBP1 bMERB domain (bMERB_(1060-1212), full-length bMERB domain) (domain or fragment)
chain: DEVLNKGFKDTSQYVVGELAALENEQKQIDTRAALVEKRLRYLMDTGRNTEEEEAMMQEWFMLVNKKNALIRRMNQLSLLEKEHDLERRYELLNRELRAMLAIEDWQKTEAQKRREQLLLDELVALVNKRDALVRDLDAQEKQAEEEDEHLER
B5: Rab8a_(1-176) (human Rab8a G-domain) (domain or fragment)
chain: MAKTYDYLFKLLLIGDSGVGKTCVLFRFSEDAFNSTFISTIGIDFKIRTIELDGKRIKLQIWDTAGQERFRTITTAYYRGAMGIMLVYDITNEKSFDNIRNWIRNIEEHASADVEKMILGNKCDVNDKRQVSKERGEKLALDYGIKFMETSAKANINVENAFFTLARDIKAKMDKK

Assay [1] deals with B4. Put plainly: displacement by GppNHp Rab8a.
Assay [2] has as its target EHBP1 full-length bMERB domain M1116A (human, UniProt Q8NDI1-1 1060-1212, M1116A). Put plainly: ITC.
Assay [3] has as its target EHBP1 full-length bMERB domain M1103A (human, UniProt Q8NDI1-1 1060-1212, M1103 to alanine). As to the kind of experiment: ITC.
Assay [4] has as its target B4. As to the kind of experiment: ITC.
Assay [5] deals with EHBP1 CH domain Q542A (human, UniProt Q8NDI1-1 440-550, Q542 to alanine). Put plainly: ITC.
Chain of EHBP1 CH domain Q542A (Q8NDI1 1060-1212, stated change not applied): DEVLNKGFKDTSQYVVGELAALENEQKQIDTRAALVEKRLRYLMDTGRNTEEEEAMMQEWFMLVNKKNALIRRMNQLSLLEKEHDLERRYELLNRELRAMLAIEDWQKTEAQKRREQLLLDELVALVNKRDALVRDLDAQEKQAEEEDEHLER
Assay [6] addresses EHBP1 CH domain Y541A (human, UniProt Q8NDI1-1 440-550, Y541 to alanine). As to the kind of experiment: ITC.
In assay [7] the target is EHBP1 CH domain D532A (human, UniProt Q8NDI1-1 440-550, D532 to alanine). Put plainly: ITC.
Chain of EHBP1 CH domain D532A (Q8NDI1 1060-1212, stated change not applied): as above
Assay [8] deals with EHBP1 CH domain M537A (human, UniProt Q8NDI1-1 440-550, M537 to alanine). Put plainly: ITC.
Chain of EHBP1 CH domain M537A (Q8NDI1 1060-1212, stated change not applied): as above
The target in assay [9] is Rab8a_(1-176_T72E) (phosphomimetic Rab8a) (human, UniProt P61006 1-176, T72E). Put plainly: ITC.
The target of assay [10] is EHBP1 bMERB domain L1156S (human, UniProt Q8NDI1-1 1060-1212, L1156S). Put plainly: ITC; GppNHp.
Chain of EHBP1 bMERB domain L1156S (Q8NDI1 1060-1212 L1156S): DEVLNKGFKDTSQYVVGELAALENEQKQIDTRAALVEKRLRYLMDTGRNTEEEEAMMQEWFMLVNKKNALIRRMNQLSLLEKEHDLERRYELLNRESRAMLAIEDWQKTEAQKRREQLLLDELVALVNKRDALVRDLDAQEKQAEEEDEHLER
The target of assay [11] is EHBP1 bMERB domain L1182S (human, UniProt Q8NDI1-1 1060-1212, L1182S). As to the kind of experiment: ITC; GppNHp.
Chain of EHBP1 bMERB domain L1182S (Q8NDI1 1060-1212 L1182S): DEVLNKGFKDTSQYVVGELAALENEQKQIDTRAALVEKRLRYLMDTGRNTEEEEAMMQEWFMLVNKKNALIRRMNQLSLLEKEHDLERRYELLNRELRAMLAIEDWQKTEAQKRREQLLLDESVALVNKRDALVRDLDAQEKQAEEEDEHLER
Assay [12] deals with EHBP1 bMERB domain Q1176A (human, UniProt Q8NDI1-1 1060-1212, Q1176A). Put plainly: ITC; GppNHp.
Chain of EHBP1 bMERB domain Q1176A (Q8NDI1 1060-1212 Q1176A): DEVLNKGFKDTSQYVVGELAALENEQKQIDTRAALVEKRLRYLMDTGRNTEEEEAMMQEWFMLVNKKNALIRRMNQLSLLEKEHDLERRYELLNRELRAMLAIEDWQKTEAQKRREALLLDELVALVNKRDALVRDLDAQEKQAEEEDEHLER
Assay [13] addresses EHBP1 bMERB domain R1189A (human, UniProt Q8NDI1-1 1060-1212, R1189A). As to the kind of experiment: ITC; GppNHp.
Assay [14] has as its target EHBP1 bMERB domain L1179S (human, UniProt Q8NDI1-1 1060-1212, L1179S). As to the kind of experiment: ITC; GppNHp.
Assay [15] addresses EHBP1 bMERB domain N1187A (human, UniProt Q8NDI1-1 1060-1212, N1187A). As to the kind of experiment: ITC; GppNHp.

Chain of EHBP1 full-length bMERB domain M1103A (Q8NDI1 1060-1212 M1103A): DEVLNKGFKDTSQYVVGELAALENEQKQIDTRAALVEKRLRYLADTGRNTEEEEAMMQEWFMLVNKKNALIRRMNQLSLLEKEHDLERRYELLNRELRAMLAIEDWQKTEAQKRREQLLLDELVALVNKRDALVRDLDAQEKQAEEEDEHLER
Chain of EHBP1 CH domain Y541A (Q8NDI1 1060-1212, stated change not applied): as the sequence (Q8NDI1 1060-1212, stated change not applied) above
Chain of EHBP1 full-length bMERB domain M1116A (Q8NDI1 1060-1212 M1116A): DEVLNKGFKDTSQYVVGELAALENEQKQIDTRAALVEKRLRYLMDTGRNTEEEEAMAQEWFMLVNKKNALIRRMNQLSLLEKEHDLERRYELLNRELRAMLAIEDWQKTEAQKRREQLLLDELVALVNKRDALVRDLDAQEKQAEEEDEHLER
Chain of EHBP1 bMERB domain L1179S (Q8NDI1 1060-1212 L1179S): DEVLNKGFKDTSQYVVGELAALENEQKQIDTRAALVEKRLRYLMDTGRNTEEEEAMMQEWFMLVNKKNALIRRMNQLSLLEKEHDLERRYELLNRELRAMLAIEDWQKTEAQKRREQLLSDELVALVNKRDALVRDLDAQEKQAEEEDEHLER
Chain of EHBP1 bMERB domain N1187A (Q8NDI1 1060-1212 N1187A): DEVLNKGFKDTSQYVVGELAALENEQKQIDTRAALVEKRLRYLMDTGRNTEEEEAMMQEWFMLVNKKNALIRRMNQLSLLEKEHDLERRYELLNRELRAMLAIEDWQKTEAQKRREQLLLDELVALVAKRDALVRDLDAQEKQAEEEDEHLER
Chain of EHBP1 bMERB domain R1189A (Q8NDI1 1060-1212 R1189A): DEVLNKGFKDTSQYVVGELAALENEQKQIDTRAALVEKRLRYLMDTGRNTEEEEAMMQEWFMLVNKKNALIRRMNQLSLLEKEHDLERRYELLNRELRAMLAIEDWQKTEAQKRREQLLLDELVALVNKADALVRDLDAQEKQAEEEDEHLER

In the case of B1, in assay [1], the dissociation rate constant (koff) is 165 s⁻¹.
On to B2, for which the Kd in assay [2] stood at 15.8 µM; in assay [3], 34.7 µM.
B3 came in with a dissociation constant Kd in [4] of 0.32 µM. In other words, the sub-micromolar range.
In the case of B4, the Kd in assay [5] worked out at 3.85 µM; in assay [6], 5.65 µM; in assay [7] it was 43.5 µM; in assay [8], 7.6 µM; in assay [9] it was 0.4 µM.
As to B5, the dissociation constant (Kd) came out at 14.3 µM in assay [10]; 3.04 µM in [11]; 0.33 µM in [12]; 6 µM in assay [13]; 3.23 µM in assay [14]; 1.5 µM in [15].
